Patent US12710427B2, “Anti-human neurotensin receptor 1 antibody and use thereof” (National Health Research Institutes, priority 2020, dated 2026)

Key:
[1] = tested on: PC-3; experiment: In vitro cell cytotoxicity assay (CellTiter-Glo); format: cell-based
Procedure: (§1) The number of living cells were determined using the CellTiter-Glo® Luminescent Cell Viability Assay (Promega G7571). Cells were plated in 96-well opaque Costar plates (Cat number 136101). In brief, 500-2500 cells in 90 μL media were added to each well in quadruplicate and allowed to adhere for 16 hours. Anti-NTSR1 (dose range: 0-500 nM), anti-NTSR1-MMAE (dose range: 0-500 nM) or Paclitaxel (dose range: 0-100 nM) were added in […] 72-120 hours, medium was removed, and 200 μL of CellTiter-Glo® viability reagent contain culture medium (1:1) was added to each well and placed on an orbital shaker in the dark for 2 minutes. The plate was allowed to sit at RT for 10 minutes before being read on a GloMax® Explorer Multimode Microplate Reader (GM3500).

[2] = tested on: A549; experiment: In vitro cell cytotoxicity assay (CellTiter-Glo); format: cell-based
Procedure: as §1

[3] = Isoelectric point (pI); format: physicochemical
[4] = Pharmacokinetics in mice, serum antibody by ELISA; format: in vivo
Procedure: The pharmacokinetics of h7C3-3 and h7C3-4 were evaluated in B6 mice. B6 mice (n=6) were administered 10 mg/kg of test material (based on the antibody component) by tail vein injection. Blood samples were collected from each mouse via the saphenous vein at hour 1, 2, and 6, and at day 1, 2, 3, 4, 7, 9, 11, 14, 16, 18, 21, 23, 25, 35 and 42 post-injection, and serum samples were collected. Plasma concentrations of h7C3-3 and h7C3-4 were measured by IgG (Total) Human ELISA Kit (Invitrogen, BMS2091).

[5] = tested on: HA22T-Luc; experiment: In vitro cell cytotoxicity assay (CellTiter-Glo); format: cell-based
Procedure: as §1

[6] = tested on: H1299; experiment: In vitro cell cytotoxicity assay (CellTiter-Glo); format: cell-based
Procedure: as §1

[7] = tested on: HA22T; experiment: In vitro cell cytotoxicity assay (CellTiter-Glo); format: cell-based
Procedure: as §1

[8] = tested on: Mahlavu; experiment: In vitro cell cytotoxicity assay (CellTiter-Glo); format: cell-based
Procedure: as §1

[9] = tested on: HA22T-Luc liver tumor xenografts; experiment: HA22T-Luc liver tumor xenograft model; format: in vivo, SCID mice
Excerpt: (§2) Immuodeficient male NU/NU nude mice (for H1299 and PC-3 xenograft study) and male Fox Chase SCID® mice (for HA22T-Luc xenograft study) of 7-week-old purchased from BioLASCO were housed in sterilized cages equipped with an air filter and sterile bedding materials at the Laboratory Animal Center of the National Health Research Institutes (NHRI), which is an AAALAC International accredited facility. All mice were fed with sterilized water and chow ad libitum under 12-hour light/12-hour dark cycle throughout the study. On the day of tumor cell inoculation, the number of viable cells was counted by using a hemocytometer with trypan blue staining under a light microscope. Cells were suspended in phenol red-free medium [RPMI1640 (H1299) or DMEM (HA22T-Luc)] or PBS (PC-3) and Matrigel™ (356237, Matrigel® Matrix, Corning, MA, United States) in 1:1 ratio. H1299 (1×10^6 cells), HA22T-Luc (5×10^6 cells) and PC-3 (1×10^6 cells) were implanted subcutaneously into the left flank of either nude or SCID mice using a 1 mL syringe (needle 24G×1 inch). Tumor dimensions were measured with a digital caliper, and the tumor volume in mm^3 was calculated by the formula: Volume=(length×width^∧2)/2. Tumor-bearing mice were grouped (n=5-8 per group) and administered when the average tumor volume was approximately at 200 mm^3. In the 3 individual xenograft studies, human IgG (HU-GF-ED, Lot#120916DG, Molecular Innovations, MI, USA), h7C3-4, h7C3-3-MMAE and h7C3-4-MMAE were diluted in 1× Dulbecco's Phosphate Buffered Saline (02-023-5A, Biological Industries, CT, USA) freshly before dosing at concentration of 2.5 mg/ml. Cisplatin (KEMOPLAT, 1 mg/mL, 87200009AA, Fresenius Kabi, Bad Homburg, Germany) was purchased. In the H1299 xenograft study, tumor-bearing mice were divided into 5 groups (6 mice per group): Human IgG −10 mg/Kg group (negative control), Cisplatin—7 mg/Kg group (positive control), h7C3-3-MMAE —10 mg/Kg group, h7C3-4 −10 mg/Kg group and h7C3-4-MMAE −10 mg/Kg group. The mice were intravenously injected with 4 mL/Kg of dose volume by tail vein twice per week for 3 weeks, except for the Cisplatin group, which was once per week for 3 weeks. In the HA22T-Luc xenograft study, tumor-bearing mice were divided into 3 groups (8 mice per group): Human IgG −10 mg/Kg group (negative control), h7C3-3-MMAE −10 mg/Kg group and h7C3-4-MMAE (ADC) −10 mg/Kg group. The mice were intravenously injected with 4 mL/Kg of dose volume by tail vein twice per week for 2 weeks. In the PC-3 xenograft study, tumor-bearing mice were divided into 2 groups: no treatment group (5 mice) and h7C3-4-MMAE (ADC) −10 mg/Kg (8 mice). The mice in h7C3-4-MMAE −10 mg/Kg group were intravenously injected with 4 mL/Kg of dose volume by tail vein twice per week for 3 weeks. Each treatment was based on the body weight. Body weight and tumor size were measured twice weekly.
To compare the anti-tumor efficacies of h7C3-3-MMAE and h7C3-4 MMAE, an experiment was performed with 5×10^6 HA22T-luc liver cancer cells inoculated subcutaneously to SCID mice. Tumor-bearing mice were divided into 3 groups (n=8). When the tumors reached a volume of 200 mm^3, 10 mg/Kg of human IgG, h7C3-3-MMAE and h7C3-4 MMAE were administered intravenously, respectively, twice weekly for four doses.

[10] = tested on: H1299 lung tumor xenograft; experiment: H1299 lung tumor xenograft model; format: in vivo, nude mice
Excerpt: as §2
Nude mice were subcutaneously inoculated with NTSR1-expressing cells, H1299 (1×10^6 cells per mouse). When the tumors reached a volume of 200 mm^3, the tumor-bearing mice were grouped (n=6) and administered intravenously with human IgG (negative control), h7C3-3-MMAE, h7C3-4 and h7C3-4-MMAE, respectively, at 10 mg/Kg twice weekly for six doses. The Cisplatin (positive control) was administered intravenously at 7 mg/Kg weekly for three doses.

[11] = tested on: NTSR1-expressing A549 cancer cells; experiment: Internalization of h7C3-3 or h7C3-3-ADC in A549 cells (flow cytometry); format: cell-based; conditions: A549, 1 μg/ml, 37° C. for 90 minutes
Procedure: A total of 1×10^6 cells were reacted with the indicated antibody or ADC in 100 μL of FACS buffer for 60 minutes at 4° C. and washed to remove excess antibody or ADC. Cells were then transferred to 4° C. or 37° C. for 90 minutes. To determine the relative number of h7C3-3 or h7C3-3-ADC on the cell surface, cells were stained with saturating amounts of FITC (BD Pharmingen™) conjugated mouse anti-human IgG antibodies and incubated for additional 60 minutes on ice. Cells were washed again and followed by an additional incubation with 1 ml PBS containing 0.5 mg/mL propidium iodide at 4° C. for 10 minutes. Data were collected on 10,000 living cells by FACS (Bio-Red S3e cell sorter). Fluorescence intensity from channel FL-1 was calculated with Flow Jo flow cytometry analysis software. Preparation of anti-NTSR1 antibody-drug conjugates (ADCs)

[12] = biological target: T1, NTSR1 on A549 cells (Homo sapiens, UniProt P30989); experiment: Flow cytometry (FACS) binding of anti-NTSR1 antibodies on A549 cells; conditions: A549 cells, one hour incubation at 4° C.
T1 construct: endogenous in cells; host or cells: A549 (NSCLC)
T1 sequence (P30989 whole entry): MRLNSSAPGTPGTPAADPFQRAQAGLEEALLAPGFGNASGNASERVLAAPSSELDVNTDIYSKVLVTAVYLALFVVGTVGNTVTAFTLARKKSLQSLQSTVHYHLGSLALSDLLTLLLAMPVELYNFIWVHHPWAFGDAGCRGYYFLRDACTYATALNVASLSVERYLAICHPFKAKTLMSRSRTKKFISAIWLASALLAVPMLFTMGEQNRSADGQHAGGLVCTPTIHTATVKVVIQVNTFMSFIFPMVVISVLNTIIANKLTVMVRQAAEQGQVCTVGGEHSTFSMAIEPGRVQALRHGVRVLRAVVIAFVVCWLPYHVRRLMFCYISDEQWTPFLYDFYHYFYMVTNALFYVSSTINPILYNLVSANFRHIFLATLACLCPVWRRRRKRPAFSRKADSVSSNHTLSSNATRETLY
Procedure: A total of 1×10^6 cells were reacted with an anti-NTSR1 antibody in 100 μL of FACS buffer (PBS containing 0.5% BSA) for 60 minutes at 4° C. and washed two times to remove excess antibody. Secondary FITC (BD Pharmingen™) conjugated mouse anti-human IgG antibodies were incubated for an additional 60 minutes on ice. Cells were washed again and followed by an additional incubation with 1 ml PBS containing 0.5 mg/mL propidium iodide at 4° C. for 10 minutes. Data were collected on 10,000 living cells by FACS (Bio-Red S3e cell sorter). Fluorescence intensity from channel FL-1 was calculated with Flow Jo flow […] cytometry analysis software.

[13] = 10 mg/Kg i.v. twice weekly for four doses

B1: h7C3-4: h7C3-3 variant with S9T and D82E in VH and K79T in VL; VH SEQ ID NO: 13, VL SEQ ID NO: 14 (antibody, V domains shown)
VH: QVQLQQPGTVLVRPGASVKLSCKASGYAFTSSWIHWAKQRPGQGLEWIGQIRPNSGNTYYNEKFKVKATLTVDTSSSTAYVELSSLTSEDSAVYYCARYHYGFDYWGQGTLVTVSS
VL: DVLMTQTPLSLPVSLGDQASISCRSSQSIVHSNGNTYLEWYLQKPGQSPKLLIYKVSNRFSGVPDRFSGSGSGTDFTLTISRVEAEDLGVYYCFQGAHLPWTFGGGTKLEIKR
modifications: VH SEQUENCE; VL SEQUENCE
[1]
  IC50: > 500 nM
[2]
  IC50: > 500 nM
[3]
  isoelectric points (pI) compared to h7C3-3: lower
[4]; 10 mg/kg
  pharmacokinetics (overall): better pharmacokinetics
[4]; single intravenous administration 10 mg/kg
  clearance compared with h7C3-3: significantly improved clearance

B2: h7C3-3-MMAE: h7C3-3 conjugated with MMAE via cleavable valine-citrulline linker, average 3.8-4 MMAE per antibody (conjugate)
VH: QVQLQQPGSVLVRPGASVKLSCKASGYAFTSSWIHWAKQRPGQGLEWIGQIRPNSGNTYYNEKFKVKATLTVDTSSSTAYVDLSSLTSEDSAVYYCARYHYGFDYWGQGTLVTVSS
VL: DVLMTQTPLSLPVSLGDQASISCRSSQSIVHSNGNTYLEWYLQKPGQSPKLLIYKVSNRFSGVPDRFSGSGSGTDFTLKISRVEAEDLGVYYCFQGAHLPWTFGGGTKLEIKR
modifications: non-natural residues
notes: h7C3-3 conjugated with MMAE via cleavable valine-citrulline linker, average 3.8-4 MMAE per antibody
[1]
  IC50: 21.9 ± 2.04 nM
[2]
  IC50: 40.9 ± 1.63 nM
[5]
  IC50: 39.4 ± 2.87 nM
[6]
  IC50: 95.6 ± 2.02 nM
[7]
  IC50: 36.9 ± 3.04 nM
[8]
  IC50: 236 ± 6.9 nM
[9]; [13]
  tumor volume on day 15: tumor regression
  tumor volume until 36 days: prolonged regression of tumor
[9]; 10 mg/kg, HA22T-Luc xenograft mice
  body weight: did not show body weight loss
[10]; 10 mg/kg i.v. twice weekly for six doses
  tumor growth (tumor volume) until/on day 35: partial inhibition of the tumor growth
[10]; 10 mg/kg, H1299 xenograft mice
  body weight: did not show body weight loss
[11]
  internalization efficiency: internalized efficiently
[12]
  binding on cell surface: have binding efficiency on cell surface
